Measured values: article doi:10.1101/709485 (bioRxiv, 2019)
Non-standard residues stand in square brackets, D forms with d. No end group written: not given here. pT = C[C@@H](OP(=O)(O)O)[C@H](N)C(=O)O

What was measured:
SUMO2 [1] = target: SUMO2 (UniProt P61956)
SUMO2 [2] = target: SUMO2 (UniProt P61956); test: NMR titration
SUMO1 = SUMO1 (UniProt P63165); test: NMR titration
[3] = target: Chk2-FHA domain (aa:64-212) (UniProt O96017 64-212); test: ITC
Chain of Chk2-FHA domain (aa:64-212) (O96017 64-212): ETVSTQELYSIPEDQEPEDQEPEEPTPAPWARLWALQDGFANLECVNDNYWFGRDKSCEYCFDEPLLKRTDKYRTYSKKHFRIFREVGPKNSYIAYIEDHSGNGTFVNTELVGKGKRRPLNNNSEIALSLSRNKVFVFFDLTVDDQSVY

Chain of SUMO1 (P63165 1-97): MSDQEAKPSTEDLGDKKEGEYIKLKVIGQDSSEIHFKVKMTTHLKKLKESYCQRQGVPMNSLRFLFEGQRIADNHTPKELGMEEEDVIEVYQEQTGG

Molecule “ICP0pm (phosphomimetic full-length ICP0, Ser365 and Ser367 mutated to aspartic acids) (from UniProt P08393 1-775) (enzyme)” has an STUbL activity on SUMOylated FLAG-PMLs, against ICP0 (fold (against ICP0)) (SUMO2 [1]) of 5.

SLS4 peptide of ICP0 was tested, and the Kd (SUMO2 [2]) was 81 µM and the Kd (SUMO1) was 128 µM.

Molecule “pSLS4 peptide of ICP0 (SLS4 phosphorylated at Ser365)” has a Kd (SUMO2 [2]) of 7 µM and a Kd (SUMO1) of 16 µM.

Molecule “ppSLS4 peptide of ICP0 (SLS4 phosphorylated at Ser365 and Ser367)” has a Kd (SUMO2 [2]) of 3 µM and a Kd (SUMO1) of 5 µM.

With DDDSASEADSTD[pT]ELFETGL [ICP0-FBM peptide, phosphorylated at Thr67 (FHA Binding Motif, aa: 55-74)] the Kd [3] was 0.75 ± 0.05 µM, the dH [3] was -5.8 ± 0.1 kcal/mol and the “stoichiometry N” value [3] was 1.23.
